Target: T1, 6xHis-Stg (N-terminally histidine-tagged full-length mouse stargazin) (mouse), O88602
T1 chain: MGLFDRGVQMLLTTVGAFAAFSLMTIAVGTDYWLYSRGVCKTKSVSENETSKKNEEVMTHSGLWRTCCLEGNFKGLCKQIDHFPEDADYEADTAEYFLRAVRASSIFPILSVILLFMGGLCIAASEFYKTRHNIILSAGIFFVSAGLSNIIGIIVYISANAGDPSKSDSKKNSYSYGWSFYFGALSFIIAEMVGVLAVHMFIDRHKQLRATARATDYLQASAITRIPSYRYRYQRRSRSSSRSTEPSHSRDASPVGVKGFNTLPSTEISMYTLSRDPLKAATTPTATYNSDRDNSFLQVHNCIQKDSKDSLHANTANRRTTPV
Experiment: electron crystallography of 2D crystals
Settings: remark: other sources report otherwise

B1: 6xHis-Stg (N-terminally histidine-tagged full-length mouse stargazin), O88602 1-323 (natural protein)
chain: T1 chain
With B1 the stoichiometry N was 2.

Source: PMC3091956
